From doi:10.1101/2020.12.21.423144 (bioRxiv, 2020)

Legend:
P29274 = test: SEC
SEC = molecular target: the molecule itself; test: SEC

Protein | binding result (SEC) | also measured
A2AR-N359ΔC (protein) MPIMGSSVYITVELAIAVLAILGNVLVCWAVWLNSNLQNVTNYFVVSLAAADIAVGVLAIPFAITISTGFCAACHGCLFIACFVLVLTQSSIFSLLAIAIDRYIAIRIPLRYNGLVTGTRAKGIIAICWVLSFAIGLTPMLGWNNCGQPKEGKNHSQGCGEGQVACLFEDVVPMNYMVYFNFFACVLVPLLLMLGVYLRIFLAARRQLKQMESQPLPGERARSTLQKEVHAAKSLAIIVGLFALCWLPLHIINCFTFFCPDCSHAPLWLMYLAIVLSHTNSVVNPFIYAYRIREFRQTFRKIIRSHVLRQQEPFKAAGTSARVLAAHGSDGEQVSLRLNGHPPGVWANGSAPHPERRPN | – | HMW oligomer level (relative to monomer) (P29274): ctrl: 0.68; total oligomer level (HMW oligomer and dimer, relative to monomer) (P29274): ctrl: 1.01
A2AR-G344ΔC (domain or fragment) MPIMGSSVYITVELAIAVLAILGNVLVCWAVWLNSNLQNVTNYFVVSLAAADIAVGVLAIPFAITISTGFCAACHGCLFIACFVLVLTQSSIFSLLAIAIDRYIAIRIPLRYNGLVTGTRAKGIIAICWVLSFAIGLTPMLGWNNCGQPKEGKNHSQGCGEGQVACLFEDVVPMNYMVYFNFFACVLVPLLLMLGVYLRIFLAARRQLKQMESQPLPGERARSTLQKEVHAAKSLAIIVGLFALCWLPLHIINCFTFFCPDCSHAPLWLMYLAIVLSHTNSVVNPFIYAYRIREFRQTFRKIIRSHVLRQQEPFKAAGTSARVLAAHGSDGEQVSLRLNGHPPG | binds | –
A2AR-G349ΔC (domain or fragment) MPIMGSSVYITVELAIAVLAILGNVLVCWAVWLNSNLQNVTNYFVVSLAAADIAVGVLAIPFAITISTGFCAACHGCLFIACFVLVLTQSSIFSLLAIAIDRYIAIRIPLRYNGLVTGTRAKGIIAICWVLSFAIGLTPMLGWNNCGQPKEGKNHSQGCGEGQVACLFEDVVPMNYMVYFNFFACVLVPLLLMLGVYLRIFLAARRQLKQMESQPLPGERARSTLQKEVHAAKSLAIIVGLFALCWLPLHIINCFTFFCPDCSHAPLWLMYLAIVLSHTNSVVNPFIYAYRIREFRQTFRKIIRSHVLRQQEPFKAAGTSARVLAAHGSDGEQVSLRLNGHPPGVWANG | binds | –
A2AR-P395ΔC (domain or fragment) MPIMGSSVYITVELAIAVLAILGNVLVCWAVWLNSNLQNVTNYFVVSLAAADIAVGVLAIPFAITISTGFCAACHGCLFIACFVLVLTQSSIFSLLAIAIDRYIAIRIPLRYNGLVTGTRAKGIIAICWVLSFAIGLTPMLGWNNCGQPKEGKNHSQGCGEGQVACLFEDVVPMNYMVYFNFFACVLVPLLLMLGVYLRIFLAARRQLKQMESQPLPGERARSTLQKEVHAAKSLAIIVGLFALCWLPLHIINCFTFFCPDCSHAPLWLMYLAIVLSHTNSVVNPFIYAYRIREFRQTFRKIIRSHVLRQQEPFKAAGTSARVLAAHGSDGEQVSLRLNGHPPGVWANGSAPHPERRPNGYALGLVSGGSAQESQGNTGLPDVELLSHELKGVCP | binds | –
A2AR-P354ΔC (domain or fragment) MPIMGSSVYITVELAIAVLAILGNVLVCWAVWLNSNLQNVTNYFVVSLAAADIAVGVLAIPFAITISTGFCAACHGCLFIACFVLVLTQSSIFSLLAIAIDRYIAIRIPLRYNGLVTGTRAKGIIAICWVLSFAIGLTPMLGWNNCGQPKEGKNHSQGCGEGQVACLFEDVVPMNYMVYFNFFACVLVPLLLMLGVYLRIFLAARRQLKQMESQPLPGERARSTLQKEVHAAKSLAIIVGLFALCWLPLHIINCFTFFCPDCSHAPLWLMYLAIVLSHTNSVVNPFIYAYRIREFRQTFRKIIRSHVLRQQEPFKAAGTSARVLAAHGSDGEQVSLRLNGHPPGVWANGSAPHP | – | dimer level (relative to monomer) (SEC): 0.19 arbitrary units
A2AR-Q372ΔC (domain or fragment) MPIMGSSVYITVELAIAVLAILGNVLVCWAVWLNSNLQNVTNYFVVSLAAADIAVGVLAIPFAITISTGFCAACHGCLFIACFVLVLTQSSIFSLLAIAIDRYIAIRIPLRYNGLVTGTRAKGIIAICWVLSFAIGLTPMLGWNNCGQPKEGKNHSQGCGEGQVACLFEDVVPMNYMVYFNFFACVLVPLLLMLGVYLRIFLAARRQLKQMESQPLPGERARSTLQKEVHAAKSLAIIVGLFALCWLPLHIINCFTFFCPDCSHAPLWLMYLAIVLSHTNSVVNPFIYAYRIREFRQTFRKIIRSHVLRQQEPFKAAGTSARVLAAHGSDGEQVSLRLNGHPPGVWANGSAPHPERRPNGYALGLVSGGSAQ | binds | –
A2AR-V334ΔC (domain or fragment) MPIMGSSVYITVELAIAVLAILGNVLVCWAVWLNSNLQNVTNYFVVSLAAADIAVGVLAIPFAITISTGFCAACHGCLFIACFVLVLTQSSIFSLLAIAIDRYIAIRIPLRYNGLVTGTRAKGIIAICWVLSFAIGLTPMLGWNNCGQPKEGKNHSQGCGEGQVACLFEDVVPMNYMVYFNFFACVLVPLLLMLGVYLRIFLAARRQLKQMESQPLPGERARSTLQKEVHAAKSLAIIVGLFALCWLPLHIINCFTFFCPDCSHAPLWLMYLAIVLSHTNSVVNPFIYAYRIREFRQTFRKIIRSHVLRQQEPFKAAGTSARVLAAHGSDGEQV | binds | –
A2AR-FL-ERR:AAA (receptor) MPIMGSSVYITVELAIAVLAILGNVLVCWAVWLNSNLQNVTNYFVVSLAAADIAVGVLAIPFAITISTGFCAACHGCLFIACFVLVLTQSSIFSLLAIAIDRYIAIRIPLRYNGLVTGTRAKGIIAICWVLSFAIGLTPMLGWNNCGQPKEGKNHSQGCGEGQVACLFEDVVPMNYMVYFNFFACVLVPLLLMLGVYLRIFLAARRQLKQMESQPLPGERARSTLQKEVHAAKSLAIIVGLFALCWLPLHIINCFTFFCPDCSHAPLWLMYLAIVLSHTNSVVNPFIYAYRIREFRQTFRKIIRSHVLRQQEPFKAAGTSARVLAAHGSDGEQVSLRLNGHPPGVWANGSAPHPAAAPNGYALGLVSGGSAQESQGNTGLPDVELLSHELKGVCPEPPGLDDPLAQDGAGVS | – | dimer level (relative to monomer) (SEC): 0.29 arbitrary units; HMW oligomer level (relative to monomer) (P29274): ERR:AAA: 0.66; total oligomer level (HMW oligomer and dimer, relative to monomer) (P29274): ERR:AAA: 0.94
A2AR-C394V (receptor) MPIMGSSVYITVELAIAVLAILGNVLVCWAVWLNSNLQNVTNYFVVSLAAADIAVGVLAIPFAITISTGFCAACHGCLFIACFVLVLTQSSIFSLLAIAIDRYIAIRIPLRYNGLVTGTRAKGIIAICWVLSFAIGLTPMLGWNNCGQPKEGKNHSQGCGEGQVACLFEDVVPMNYMVYFNFFACVLVPLLLMLGVYLRIFLAARRQLKQMESQPLPGERARSTLQKEVHAAKSLAIIVGLFALCWLPLHIINCFTFFCPDCSHAPLWLMYLAIVLSHTNSVVNPFIYAYRIREFRQTFRKIIRSHVLRQQEPFKAAGTSARVLAAHGSDGEQVSLRLNGHPPGVWANGSAPHPERRPNGYALGLVSGGSAQESQGNTGLPDVELLSHELKGVVPEPPGLDDPLAQDGAGVS | binds | –
A2AR-C394S (receptor) MPIMGSSVYITVELAIAVLAILGNVLVCWAVWLNSNLQNVTNYFVVSLAAADIAVGVLAIPFAITISTGFCAACHGCLFIACFVLVLTQSSIFSLLAIAIDRYIAIRIPLRYNGLVTGTRAKGIIAICWVLSFAIGLTPMLGWNNCGQPKEGKNHSQGCGEGQVACLFEDVVPMNYMVYFNFFACVLVPLLLMLGVYLRIFLAARRQLKQMESQPLPGERARSTLQKEVHAAKSLAIIVGLFALCWLPLHIINCFTFFCPDCSHAPLWLMYLAIVLSHTNSVVNPFIYAYRIREFRQTFRKIIRSHVLRQQEPFKAAGTSARVLAAHGSDGEQVSLRLNGHPPGVWANGSAPHPERRPNGYALGLVSGGSAQESQGNTGLPDVELLSHELKGVSPEPPGLDDPLAQDGAGVS | binds | –
A2AR-C394L (receptor) MPIMGSSVYITVELAIAVLAILGNVLVCWAVWLNSNLQNVTNYFVVSLAAADIAVGVLAIPFAITISTGFCAACHGCLFIACFVLVLTQSSIFSLLAIAIDRYIAIRIPLRYNGLVTGTRAKGIIAICWVLSFAIGLTPMLGWNNCGQPKEGKNHSQGCGEGQVACLFEDVVPMNYMVYFNFFACVLVPLLLMLGVYLRIFLAARRQLKQMESQPLPGERARSTLQKEVHAAKSLAIIVGLFALCWLPLHIINCFTFFCPDCSHAPLWLMYLAIVLSHTNSVVNPFIYAYRIREFRQTFRKIIRSHVLRQQEPFKAAGTSARVLAAHGSDGEQVSLRLNGHPPGVWANGSAPHPERRPNGYALGLVSGGSAQESQGNTGLPDVELLSHELKGVLPEPPGLDDPLAQDGAGVS | binds | –
A2AR-C394M (receptor) MPIMGSSVYITVELAIAVLAILGNVLVCWAVWLNSNLQNVTNYFVVSLAAADIAVGVLAIPFAITISTGFCAACHGCLFIACFVLVLTQSSIFSLLAIAIDRYIAIRIPLRYNGLVTGTRAKGIIAICWVLSFAIGLTPMLGWNNCGQPKEGKNHSQGCGEGQVACLFEDVVPMNYMVYFNFFACVLVPLLLMLGVYLRIFLAARRQLKQMESQPLPGERARSTLQKEVHAAKSLAIIVGLFALCWLPLHIINCFTFFCPDCSHAPLWLMYLAIVLSHTNSVVNPFIYAYRIREFRQTFRKIIRSHVLRQQEPFKAAGTSARVLAAHGSDGEQVSLRLNGHPPGVWANGSAPHPERRPNGYALGLVSGGSAQESQGNTGLPDVELLSHELKGVMPEPPGLDDPLAQDGAGVS | binds | –
A2AR-C394A (receptor) MPIMGSSVYITVELAIAVLAILGNVLVCWAVWLNSNLQNVTNYFVVSLAAADIAVGVLAIPFAITISTGFCAACHGCLFIACFVLVLTQSSIFSLLAIAIDRYIAIRIPLRYNGLVTGTRAKGIIAICWVLSFAIGLTPMLGWNNCGQPKEGKNHSQGCGEGQVACLFEDVVPMNYMVYFNFFACVLVPLLLMLGVYLRIFLAARRQLKQMESQPLPGERARSTLQKEVHAAKSLAIIVGLFALCWLPLHIINCFTFFCPDCSHAPLWLMYLAIVLSHTNSVVNPFIYAYRIREFRQTFRKIIRSHVLRQQEPFKAAGTSARVLAAHGSDGEQVSLRLNGHPPGVWANGSAPHPERRPNGYALGLVSGGSAQESQGNTGLPDVELLSHELKGVAPEPPGLDDPLAQDGAGVS | binds | –
